Measurements published in patent US8129345B2, “MUC1-IκB kinase complexes and their activities” (Dana-Farber Cancer Institute, Inc., priority 2006, dated 2012).

Key:
[1] = target: IKKγ (Homo sapiens, UniProt Q9Y6K9); assay: In vitro GST pull-down binding to IKKγ
Procedure: FIG. 5B is a pair of photographs of immunoblots showing an interaction between MUC1-CD and IKKγ. GST- and GST-IKKγ bound to glutathione beads were incubated with purified MUC1-CD. The precipitates were immunoblotted (IB) with anti-MUC1-C antibodies. Commassie blue staining of the gel was performed to confirm that equal amounts of GST- and GST-IKKγ were used in the experiment. The molecular weights of proteins (as indicated on the left of the photographs) are expressed as kilodaltons (kDa).
(§1) FIG. 5C is a pair of photographs of immunoblots. GST- and the indicated GST-MUC1-CD fusion proteins or fragments bound to glutathione beads were incubated with purified IKKγ. The precipitates were immunoblotted (IB) with anti-IKKγ antibody. Commassie blue staining of the gel was performed to confirm that equal amounts of GST- and GST-MUC1 proteins were used in the experiment. The molecular weights of proteins (as indicated on the left of the photographs) are expressed as kilodaltons (kDa).
FIG. 5D is a pair of photographs of immunoblots. GST and the indicated GST-IKKγ fusion proteins bound to glutathione beads were incubated with MUC1-CD. The precipitates were immunoblotted (IB) with anti-MUC1-C antibody. Commassie blue staining of the gel was performed to confirm that equal amounts of GST- and GST-IKKγ proteins were used in the experiment. The molecular weights of proteins (as indicated on the left of the photographs) are expressed as kilodaltons (kDa).
as §1, with “FIG. 11B” for “FIG. 5C”, “of an immunoblot and Coomassie blue stained gel. GST” for “of immunoblots. GST-”, “proteins (MUC1-CD and MUC1-CD(mSRM))” for “proteins or fragments”, “with” for “with purified”, “with an” for “with”, “and GST-MUC1-CD” for “and GST-MUC1”
In vitro binding assays. Purified GST-MUC1-CD (glutathione s-transferase fused to the MUC1-CD polypeptide) was cleaved with thrombin to remove the GST moiety. GST, GST-IKKβ (DiDonato et al. (1997) Nature 388:548-554), GST-IKKβ (1-458), GST-IKKβ (458-756), GST-IKKγ (Prajapati et al. (2002) J. Biol. Chem. 277:24331-24339), GST-IKKγ (1-196) or GST-IKKγ (197-419) were then incubated with the MUC1-CD for 1 hour at 25° C. In other experiments, GST, GST-MUC1-CD, GST-MUC1-CD(1-45) or GST-MUC1-CD(46-72) were incubated with purified IKKβ or IKKγ. Adsorbates to glutathione-conjugated beads were analyzed by immunoblotting.

[2] = target: T1, IKKβ (Homo sapiens, UniProt O14920); assay: In vitro GST pull-down binding to IKKβ; settings: GST pull-down with purified proteins, immunoblot
T1 sequence (O14920 1-756): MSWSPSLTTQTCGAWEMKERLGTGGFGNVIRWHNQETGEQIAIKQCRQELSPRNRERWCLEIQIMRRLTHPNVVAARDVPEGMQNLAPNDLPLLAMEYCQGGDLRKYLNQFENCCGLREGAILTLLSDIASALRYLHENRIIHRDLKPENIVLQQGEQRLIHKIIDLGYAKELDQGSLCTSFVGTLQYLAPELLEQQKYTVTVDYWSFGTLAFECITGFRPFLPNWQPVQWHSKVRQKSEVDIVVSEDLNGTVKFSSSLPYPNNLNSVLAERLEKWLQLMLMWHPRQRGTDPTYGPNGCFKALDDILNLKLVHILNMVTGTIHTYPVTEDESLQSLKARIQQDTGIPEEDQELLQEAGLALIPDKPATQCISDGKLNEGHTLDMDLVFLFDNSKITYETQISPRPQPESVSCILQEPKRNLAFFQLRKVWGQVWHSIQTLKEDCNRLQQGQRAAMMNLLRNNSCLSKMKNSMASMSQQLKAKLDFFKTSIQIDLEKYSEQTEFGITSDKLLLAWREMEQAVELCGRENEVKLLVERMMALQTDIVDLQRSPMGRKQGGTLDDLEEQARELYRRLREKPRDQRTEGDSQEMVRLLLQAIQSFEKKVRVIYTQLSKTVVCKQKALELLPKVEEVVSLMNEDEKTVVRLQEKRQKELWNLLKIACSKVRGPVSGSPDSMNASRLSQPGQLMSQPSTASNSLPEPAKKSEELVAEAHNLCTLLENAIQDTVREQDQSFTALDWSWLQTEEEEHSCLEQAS
Procedure: FIG. 4B is a pair of photographs of immunoblots. Recombinantly expressed, purified GST- and GST-IKKβ proteins bound to glutathione-agarose beads were incubated with purified MUC1-CD protein. The precipitates were immunoblotted (IB) with anti-MUC1-C antibodies. Input of the GST and GST-IKKβ proteins was assessed by Coomassie blue staining. The molecular weights of proteins (as indicated on the left of the photographs) are expressed as kilodaltons (kDa).
FIG. 4C (top panel) is a schematic diagram of the amino acid sequence of (i) the MUC1-cytoplasmic domain (MUC1-CD) [amino acids 1-72; SEQ ID NO:2]; (ii) the MUC1-CD fragment [amino acids 1-45; SEQ ID NO:3]; and (iii) the MUC-CD fragment [amino acids 46-72; SEQ ID NO:4]. FIG. 4C (bottom panel) is a photograph of an immunoblot and a photograph of a Coomassie blue-stained electrophoretic gel. GST- and the indicated GST-MUC1-CD fusion proteins bound to glutathione beads were incubated with purified IKKβ. The precipitates were immunoblotted with anti-IKKβ. Input of the GST and GST-MUC1-CD fusion proteins was assessed by Coomassie blue staining. The molecular weights of proteins (as indicated on the left of the photographs) are expressed as kilodaltons (kDa).
FIG. 11A is a pair of photographs of an immunoblot and Coomassie-blue stained gel. GST and the indicated GST-MUC1-CD fusion proteins (MUC1-CD and MUC1-CD(mSRM)) bound to glutathione beads were incubated with IKKβ. The precipitates were immunoblotted (IB) with an anti-IKKβ antibody. Commassie blue staining of the gel was performed to confirm that equal amounts of GST- and GST-MUC1-CD proteins were used in the experiment. The molecular weights of proteins (as indicated on the left of the photographs) are expressed as kilodaltons (kDa).
In vitro binding assays. Purified GST-MUC1-CD (glutathione s-transferase fused to the MUC1-CD polypeptide) was cleaved with thrombin to remove the GST moiety. […] Adsorbates to glutathione-conjugated beads were analyzed by immunoblotting.

- binding to IKKγ ([1]; GST pull-down with purified proteins, immunoblot): binds to purified IKKγ
- binding to IKKβ [2]: interact directly
Substance: MUC1-CD: 72 amino acid cytoplasmic domain of human MUC1, SEQ ID NO:2
- region of IKKγ bound by MUC1-CD ([1]; GST-IKKγ (1-196) and GST-IKKγ (197-419) incubated with MUC1-CD): binds to the C-terminal region (197-419) of IKKγ
